System: CNCCCC(=O)c1cccnc1
Test: purified protein
Format: biochemical, Pseudomonas putida
Details: Tris-HCl pH 8.0, 30 C, O2 as acceptor

Substance	Km	kcat	kcat/Km
Pnao (Pseudomonas putida S16)	32 ± 1 µM	197 ± 1 s⁻¹	6.1e+06 M⁻¹ s⁻¹
Pnao (Pseudomonas putida S16; N224I/W220Y)	570 ± 50 µM	383 ± 19 s⁻¹	680000 M⁻¹ s⁻¹
Pnao (Pseudomonas putida S16; R96A)	56 ± 1 µM	0.75 ± 0.06 s⁻¹	13000 M⁻¹ s⁻¹
Pnao (Pseudomonas putida S16; R96A/S461A)	83 ± 12 µM	0.39 ± 0.01 s⁻¹	4700 M⁻¹ s⁻¹
Pnao (Pseudomonas putida S16; N224G/W220Y)	150 ± 0 µM	135 ± 2 s⁻¹	910000 M⁻¹ s⁻¹
Pnao (Pseudomonas putida S16; F388A)	54 ± 1 µM	0.75 ± 0.01 s⁻¹	14000 M⁻¹ s⁻¹
